Legend:
[1] = target: GP IIb/IIIa in its activated, fibrinogen-bound state on activated mouse platelets (mouse) (UniProt Q9QUM0); assay: histology of wire-injured mouse femoral artery after bead perfusion, 20-25 sections per animal
[2] = target: GP IIb/IIIa in its activated, fibrinogen-bound state on activated mouse platelets (mouse) (UniProt Q9QUM0); assay: ex vivo 11.7 T MRI of wire-injured mouse femoral artery after bead perfusion

Sequence of GP IIb/IIIa in its activated, fibrinogen-bound state on activated mouse platelets (mouse) (Q9QUM0 32-1033, chain 1 of 2): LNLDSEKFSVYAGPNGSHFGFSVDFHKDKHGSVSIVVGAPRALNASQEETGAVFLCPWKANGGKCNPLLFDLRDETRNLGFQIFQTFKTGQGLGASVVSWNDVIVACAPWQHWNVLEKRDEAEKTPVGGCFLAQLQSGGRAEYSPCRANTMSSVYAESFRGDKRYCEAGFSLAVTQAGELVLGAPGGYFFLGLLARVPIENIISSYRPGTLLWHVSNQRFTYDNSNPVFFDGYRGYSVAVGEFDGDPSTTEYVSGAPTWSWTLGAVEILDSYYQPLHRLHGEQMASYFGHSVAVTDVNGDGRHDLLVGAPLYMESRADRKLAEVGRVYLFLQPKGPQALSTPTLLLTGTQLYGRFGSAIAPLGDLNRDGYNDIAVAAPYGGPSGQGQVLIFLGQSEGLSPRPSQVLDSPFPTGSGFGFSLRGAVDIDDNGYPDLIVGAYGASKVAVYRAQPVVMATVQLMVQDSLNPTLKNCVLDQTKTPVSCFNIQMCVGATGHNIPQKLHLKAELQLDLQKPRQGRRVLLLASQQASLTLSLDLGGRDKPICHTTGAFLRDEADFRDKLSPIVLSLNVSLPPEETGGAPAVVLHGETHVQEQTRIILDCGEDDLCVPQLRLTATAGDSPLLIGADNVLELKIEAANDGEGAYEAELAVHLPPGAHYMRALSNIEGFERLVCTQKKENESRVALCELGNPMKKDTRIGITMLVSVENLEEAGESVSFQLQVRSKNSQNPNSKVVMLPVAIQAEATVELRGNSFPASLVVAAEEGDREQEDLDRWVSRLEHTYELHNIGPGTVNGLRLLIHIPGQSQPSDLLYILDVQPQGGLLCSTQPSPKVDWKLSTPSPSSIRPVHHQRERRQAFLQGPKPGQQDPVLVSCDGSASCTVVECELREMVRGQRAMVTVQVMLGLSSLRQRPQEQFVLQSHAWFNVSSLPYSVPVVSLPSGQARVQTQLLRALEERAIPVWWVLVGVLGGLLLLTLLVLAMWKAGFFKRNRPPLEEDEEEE
Sequence of GP IIb/IIIa in its activated, fibrinogen-bound state on activated mouse platelets (mouse) (O54890 26-787, chain 2 of 2, further chain): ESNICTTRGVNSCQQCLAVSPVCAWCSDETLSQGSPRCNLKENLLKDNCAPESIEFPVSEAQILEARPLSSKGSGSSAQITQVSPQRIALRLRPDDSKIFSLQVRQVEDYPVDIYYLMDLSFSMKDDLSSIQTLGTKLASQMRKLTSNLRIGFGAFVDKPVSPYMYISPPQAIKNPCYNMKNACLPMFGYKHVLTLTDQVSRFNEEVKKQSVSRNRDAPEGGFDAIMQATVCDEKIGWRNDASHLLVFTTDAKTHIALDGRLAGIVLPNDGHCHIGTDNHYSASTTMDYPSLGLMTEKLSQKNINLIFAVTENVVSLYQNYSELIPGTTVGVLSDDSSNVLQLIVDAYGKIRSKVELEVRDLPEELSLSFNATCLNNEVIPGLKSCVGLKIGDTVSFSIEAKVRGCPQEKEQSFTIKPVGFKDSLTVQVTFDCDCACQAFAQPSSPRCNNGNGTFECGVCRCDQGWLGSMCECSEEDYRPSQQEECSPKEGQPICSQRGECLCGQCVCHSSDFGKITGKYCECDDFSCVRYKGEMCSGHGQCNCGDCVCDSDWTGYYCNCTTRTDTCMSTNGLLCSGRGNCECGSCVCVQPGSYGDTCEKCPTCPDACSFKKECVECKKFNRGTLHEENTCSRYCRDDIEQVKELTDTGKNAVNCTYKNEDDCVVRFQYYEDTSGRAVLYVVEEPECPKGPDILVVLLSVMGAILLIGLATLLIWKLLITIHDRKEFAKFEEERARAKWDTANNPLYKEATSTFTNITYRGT

Control-MPIO (irrelevant single-chain antibody conjugated to 1 µm iron oxide microparticles) (scFv)
MPIOs bound per histology section (beads per section) [1]: 0.5 | luminal areas of low signal (MPIO-induced MRI signal void) [2]: 6.2

— patent US20140243502A1
